In publication PMC6792138:

System: PthA4AT (7.5-repeat TAL effector) (Xanthomonas citri ssp. citri variant AT)
Assay: PBM
Details: not stated; PBM performed as in Godoy et al. 2011

Row | Substance | binding signal
1 | PBM probes with ATATCACCT | 0.46 E-score
2 | PBM probes with ATTATTACC | 0.456 E-score
3 | PBM probes with TATAACCTT | 0.462 E-score
4 | PBM probes with TATCACCTT | 0.476 E-score
5 | PBM probes with TATCGCCTT | 0.454 E-score
6 | PBM probes with TATTACCCC | 0.458 E-score
7 | PBM probes with TATTACCTC | 0.466 E-score
8 | PBM probes with TATTACCTT | 0.481 E-score
9 | PBM probes with TTATCACCT | 0.464 E-score
10 | PBM probes with TTATTACCC | 0.46 E-score
11 | PBM probes with TTATTACCT | 0.476 E-score
